Source: patent US20210079109A1 (Regeneron, published 2021)
Positions count from the first letter of the chain named.

T1: human CD63 (human, UniProt P08962 2-238)
T1 construct: stably transfected in NIH3T3/hCD63; The cell line is named under assay; also called hCD63
T1 sequence: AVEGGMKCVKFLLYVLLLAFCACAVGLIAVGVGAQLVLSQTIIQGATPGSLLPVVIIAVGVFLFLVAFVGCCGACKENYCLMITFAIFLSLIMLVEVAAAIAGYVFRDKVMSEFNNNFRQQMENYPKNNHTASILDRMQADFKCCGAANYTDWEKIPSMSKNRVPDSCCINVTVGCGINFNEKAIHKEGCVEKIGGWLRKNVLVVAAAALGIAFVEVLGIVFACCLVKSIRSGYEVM

B1: H2M12454N (antibody, V domains shown)
VH: QVQLVESGGGLVKPGGSLRLSCAVSGFTYTDYFMNWIRQAPGKGLEWVSYISNSGAIKYYADSVKGRFTISRDNAKNSLYLQMNGLRADDTAVYYCVRDPRSYYGFDYWGQGTLVTVSS
VL: DIQMTQSPSSLSASVGDRVTITCRASQSISNFLNWYQQKPGKAPRLLIYGASNLQSGVPSRFSGGGSGTDFTLTISSLQPADFATYYCQQSFSNPPVTFGQGTRLEIN
notes: also called H2bM12454N
B2: H2M12385N (antibody, V domains shown)
VH: B1 VH with V24A, Y29F, Y60Q, G85S
VL: B1 VL with S30R, G50A, N53S, A81E, F92Y, V97I, N108K
notes: also called H2bM12385N; H2bM12385
B3: H4H11995P2 (antibody, V domains shown)
VH: EVQLVESGGALVQPGRSLRLSCAASGFTFDDYAMHWVRQAPGKGLEWVSGISWNSGTMGYADSVKGRFTISRDNAKKSLYLQMNSLRAEDTALYYCGKGLLHQWEVLDYWGQGTLVTVSS
VL: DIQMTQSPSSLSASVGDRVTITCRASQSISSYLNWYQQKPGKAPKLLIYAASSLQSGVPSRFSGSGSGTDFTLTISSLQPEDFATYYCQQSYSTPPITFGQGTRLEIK
B4: H2M12392N (antibody, V domains shown)
VH: QVQLVESGGGLVKPGGSLRLSCATSGFTFGDYYMNWFRQAPGKGLDWVSYISSSGSTRYYADSVRGRFTISRDNAKNSLYLQMNSLRAEDTAVYYCVRDLRYYYGMDVWGQGTTVTVSS
VL: not shown
notes: also called H2aM12392N
B5: H1M12390N (antibody, V domains shown)
VH: QVHLVESGGGLVKPGGSLRLSCAASGFIFSDYYMSWIRQAPGKGLEWVSYIRGSGYNADSVQGRFTISRDNAKNSLFLQMNSLRAEDTAVYYCARGYSFGYGFFDYWGQGTLVTVSS
VL: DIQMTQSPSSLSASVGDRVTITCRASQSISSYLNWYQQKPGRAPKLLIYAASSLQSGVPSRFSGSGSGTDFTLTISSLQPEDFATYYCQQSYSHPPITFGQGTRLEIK
B6: H4H12450N (antibody, V domains shown)
VH: QVQLQESGPKVVKPSETLSLTCTVSGGSISSYYWNWIRQSPGKGLEWIGYTKRGYTDYNPSLRSRVTISEDTSKNQFSLRISSVTAADTAVYYCAQMGWGSHAFDMWGQGTMVAVSS
VL: not shown

The binders below were run against T2, recombinant human CD63 extracellular loop 2 expressed with a C-terminal human Fc tag (human) (assay: SPR Biacore, mAb captured, 37C).
T2 construct: also called hCD63 EC loop 2-hFc; human CD63 EC loop 2-Fc
Experimental: (§1) Equilibrium dissociation constants (KD) for different CD63 (EC2) loop reagents binding to purified anti-CD63 monoclonal antibodies were determined using a real-time surface plasmon resonance based Biacore T200 biosensor or Biacore 2000 biosensor. All binding studies were performed in 10 mM HEPES, 150 mM NaCl, 3 mM EDTA, and 0.05% v/v Surfactant Tween-20, pH 7.4 (HBS-ET) running buffer at 25° C. and 37° C. The Biacore CMS sensor chip surface was first derivatized by amine coupling with either a rabbit anti-mouse Fc specific polyclonal antibody (GE Healthcare, Cat #BR100838) or an anti-human Fab kit (GE Healthcare, Cat #28958325) to capture anti-CD63 monoclonal antibodies. […] The association rate (Kₐ) and dissociation rate (kd) were determined by fitting the real-time binding sensorgrams to a 1:1 binding model with mass transport limitation using Scrubber 2.0c curve-fitting software. Binding dissociation equilibrium constant (KD) and dissociative half-life (t½) were calculated from the kinetic rates as: […]
(§2) Binding kinetics parameters for human CD63 EC loop 2 protein binding to different anti-CD63 monoclonal antibodies of the invention at 25° C. and 37° C. are shown in Tables 6 through 9.

T2 sequence (chain, as listed by the source limits assumed): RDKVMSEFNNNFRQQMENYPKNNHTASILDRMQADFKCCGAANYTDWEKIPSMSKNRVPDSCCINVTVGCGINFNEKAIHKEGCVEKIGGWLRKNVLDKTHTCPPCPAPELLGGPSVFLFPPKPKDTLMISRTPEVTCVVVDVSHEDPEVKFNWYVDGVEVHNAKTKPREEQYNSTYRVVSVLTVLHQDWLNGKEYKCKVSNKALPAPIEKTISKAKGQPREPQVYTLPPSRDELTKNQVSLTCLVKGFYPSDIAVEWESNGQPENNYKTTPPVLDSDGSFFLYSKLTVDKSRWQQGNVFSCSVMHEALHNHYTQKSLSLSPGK

Row | 100 nM Ag Bound (RU) | Kd [nM] | koff [s⁻¹] | kon [M⁻¹ s⁻¹] | t1/2 [min] | Binder
1 | 160 | 0.895 | 0.000777 | 868000 | 15 | B1
2 | 133 | 2.05 | 0.0017 | 827000 | 7 | B2
3 | 116 | 14.5 | 0.0188 | 1.29e+06 | 1 | B3
4 | 177 | 0.582 | 0.000445 | 765000 | 26 | B4
5 | 134 | 0.546 | 0.000495 | 907000 | 23 | B5

What follows are binders tested against T3, recombinant human CD63 extracellular loop 2 expressed with a C-terminal Myc-Myc-hexahistidine (human) (assay: SPR Biacore, mAb captured, 37C).
T3 construct: also called hCD63 EC loop 2-MMH; human CD63 EC loop 2-MMH
Experimental: as §1, §2

T3 sequence (chain, as listed by the source limits assumed): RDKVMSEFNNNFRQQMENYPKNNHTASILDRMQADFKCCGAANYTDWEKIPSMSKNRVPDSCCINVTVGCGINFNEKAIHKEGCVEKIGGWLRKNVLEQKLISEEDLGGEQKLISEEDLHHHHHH

Row | 100 nM Ag Bound (RU) | Kd [nM] | koff [s⁻¹] | kon [M⁻¹ s⁻¹] | t1/2 [min] | Binder
6 | 56 | 10.6 | 0.00591 | 559000 | 2 | B1
7 | 44 | 40 | 0.0109 | 271000 | 1 | B2
8 | 3 | 1620 | 0.128 | 79400 | 0.1 | B3
9 | 68 | 7.25 | 0.00324 | 447000 | 4 | B4
10 | 38 | 35.6 | 0.0149 | 419000 | 1 | B5

These binders were tested against T1, human CD63 (assay: ECL, LNCAP cells).
Experimental: (§3) LNCAP cells were determined to have a lower human CD63 copy number than U87MG cells. Non-transfected NIH3T3 cells, which have no detectable expression of human CD63 by fluorescence activated cell sorting (FACS), were included as a negative control.
(§4) Briefly, cell lines were rinsed once in PBS buffer without Ca²⁺/Mg²⁺ and incubated for 10 minutes at 37° C. with Enzyme Free Cell Dissociation Solution (Millipore, Cat #S-004-C) to detach the cells. Cells were then washed once with PBS with Ca²⁺/Mg²⁺ and counted with a Cellometer™ Auto T4 cell counter (Nexcelom Bioscience, LLC). Approximately 2.0×10⁴ NIH3T3/hCD63, LNCAP, U87MG or NIH3T3 cells were seeded separately onto 96-well carbon electrode plates […]) and were then incubated for one hour at 37° C. Nonspecific binding sites were blocked with 2% BSA (w/v) in PBS with Ca²⁺/Mg²⁺ for one hour at room temperature (RT). Solutions containing anti-CD63 antibodies or isotype control antibodies at a range of concentrations (1.7 pM to 100 nM) in 0.5% BSA (w/v) in PBS with Ca²⁺/Mg²⁺, as well as control buffer alone, were then added in duplicate to the plate-bound NIH3T3/hCD63, LNCAP, U87MG or NIH3T3 cells and incubated for one hour at RT. Plates were subsequently washed to remove unbound antibodies using an AquaMax2000 plate washer with a cell washing head (MDS Analytical Technologies). […] Plates were washed and then incubated with Read Buffer (MSD, Cat #R92TD-2) according to the manufacturer's instructions. Luminescent signals were measured using a SECTOR Imager (MSD).

Row | EC50 [nM] | binding ratio at 3.7 nM vs NIH3T3 [fold] | Binder
11 | 0.18 | 14 | B1
12 | 0.29 | 5 | B2
13 | 55 | 5 | B3
14 | 0.23 | 51 | B4
15 | 0.3 | 31 | B5

Each binder was assayed against T1, human CD63 (assay: ECL, NIH3T3/hCD63 cells).
Experimental: as §3, §4

Row | EC50 [nM] | binding ratio at 3.7 nM vs NIH3T3 [fold] | Binder
16 | 0.32 | 175 | B1
17 | 0.45 | 71 | B2
18 | 5 | 212 | B3
19 | 0.4 | 608 | B4
20 | 0.48 | 559 | B5

These binders were tested against T1, human CD63 (assay: ECL, U87MG cells).
Experimental: as §3, §4

Row | EC50 [nM] | binding ratio at 3.7 nM vs NIH3T3 [fold] | Binder
21 | 0.47 | 132 | B1
22 | 0.64 | 47 | B2
23 | 13 | 61 | B3
24 | 0.53 | 405 | B4
25 | 0.36 | 339 | B5

The binders below were run against T1, human CD63 (assay: imaging of stained T47D cells, 10 ug/mL antibody).
Experimental: To stain, quadruplicate plates of cells were incubated with 10 μg/mL of anti-CD63 antibodies that was diluted in 2% FBS in PBS, without Calcium and Magnesium (Irving, Cat #9240) (staining buffer) for 30 minutes at 4° C. […] Two plates were immediately fixed and stained with 4% paraformaldehyde (PFA; ThermoFisher, Cat #28908)+5 uM DRAQ5 (ThermoFisher, Cat #62251) in PBS for 20 minutes (non-internalization plates). The remaining two plates were incubated with growth media at 37° C. for 2 hours followed by fixation and staining for 20 minutes using a solution of 4% PFA+5 μM DRAQ5 diluted in PBS (internalization plates). After fixation, all plates were washed once with PBS. One non-internalization plate and one internalization plate were incubated with an anti-Alexa Fluor 488 antibody (Regeneron) at 50 μg/mL in PBS overnight at 4° C. to quench surface Alexa Fluor 488 fluorescence. The remaining plates were incubated with PBS only. Confocal images were acquired on the Opera Phenix (Perkin Elmer) at 40× magnification. Harmony analysis software (Perkin Elmer) was utilized to identify DRAQ5-labeled cells and the total Alexa-Fluor 488 relative fluorescent units (RFU) per cell was determined. The total binding at 4° C. (RFU values of 4° C. unquenched wells), total binding at 37° C. (RFU values of 37° C. unquenched wells), the total internalized RFU, and the % Internalization were determined for each antibody as shown in Table 1. For all calculations, background fluorescence from 2nd Ab only control wells were subtracted from every well. Total internalized RFU was calculated as follows: Total RFU of 37° C. unquenched samples−Surface RFU at 37° C. Surface RFU is defined as unquenched RFU at 37° C.−quenched RFU at 37° C.)/QE. QE (quenching efficiency) is defined as: 1−(Total RFU of 4° C. quenched sample/Total RFU of 4° C. unquenched sample). The % Internalization was determined from the following formula: (Total internalized RFU at 37° C./Total RFU at 37° C.)*100.

Row | Total RFU at 4C [RFU] | Total RFU at 37C (2 h) [RFU] | Binder
26 | 2.1e+06 | 2.08e+06 | B6

These binders were tested against T1, human CD63 (assay: cell-based or functional assay).

Row | % Internalization, T47D cells [%] | Total Internalized RFU, T47D cells [RFU] | Binder
27 | 68.1 | 1.42e+06 | B6

The binders below were run against T2, recombinant human CD63 extracellular … (assay: SPR Biacore, mAb captured, 25C).
Experimental: as §1, §2

Row | 100 nM Ag Bound (RU) | Kd [nM] | koff [s⁻¹] | kon [M⁻¹ s⁻¹] | t1/2 [min] | Binder
28 | 142 | 0.523 | 0.00036 | 688000 | 32 | B1
29 | 121 | 1.66 | 0.000984 | 592000 | 12 | B2
30 | 198 | 10.1 | 0.00555 | 552000 | 2 | B3
31 | 169 | 0.391 | 0.000199 | 510000 | 58 | B4
32 | 150 | 1.89 | 0.000991 | 523000 | 12 | B5

Each binder was assayed against T3, recombinant human CD63 extracellular … (assay: SPR Biacore, mAb captured, 25C).
Experimental: as §1, §2

Row | 100 nM Ag Bound (RU) | Kd [nM] | koff [s⁻¹] | kon [M⁻¹ s⁻¹] | t1/2 [min] | Binder
33 | 61 | 4.89 | 0.00188 | 384000 | 6 | B1
34 | 48 | 10.3 | 0.00331 | 322000 | 3 | B2
35 | 8 | – | – | – | – | B3
36 | 79 | 3.1 | 0.000922 | 298000 | 13 | B4
37 | 54 | 10.4 | 0.00336 | 323000 | 3 | B5
